Measurements from patent publication US20160002326A1 (AbbVie / Abbott, published 2016).

Legend:
TL1A = molecular target: T1, TL1A (UniProt O95150 72-251); test: direct ELISA
T1 sequence (looked up): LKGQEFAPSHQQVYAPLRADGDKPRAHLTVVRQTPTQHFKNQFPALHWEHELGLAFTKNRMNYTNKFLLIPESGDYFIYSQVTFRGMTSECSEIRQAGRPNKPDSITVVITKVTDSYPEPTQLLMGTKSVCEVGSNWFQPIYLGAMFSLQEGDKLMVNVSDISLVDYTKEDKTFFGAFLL

Fas ligand = molecular target: T2, Fas ligand (UniProt P48023 134-281, limits assumed); test: direct ELISA
T2 sequence (looked up): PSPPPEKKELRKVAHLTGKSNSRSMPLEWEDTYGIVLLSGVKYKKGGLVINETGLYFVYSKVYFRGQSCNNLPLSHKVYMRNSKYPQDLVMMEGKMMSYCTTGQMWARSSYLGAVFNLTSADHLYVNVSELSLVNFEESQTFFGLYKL

IL-17D = molecular target: T3, IL-17D (UniProt Q8TAD2 16-202, limits assumed); test: direct ELISA
T3 sequence (looked up): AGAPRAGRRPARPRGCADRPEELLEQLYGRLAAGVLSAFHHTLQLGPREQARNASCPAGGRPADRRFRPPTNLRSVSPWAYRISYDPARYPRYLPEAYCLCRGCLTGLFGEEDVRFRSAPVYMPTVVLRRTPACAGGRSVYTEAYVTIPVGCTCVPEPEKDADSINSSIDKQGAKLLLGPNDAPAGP

4-1BB ligand = 4-1BB ligand (UniProt P41273 71-254, limits assumed); test: direct ELISA
4-1BB ligand, sequence (P41273 71-254 limits assumed): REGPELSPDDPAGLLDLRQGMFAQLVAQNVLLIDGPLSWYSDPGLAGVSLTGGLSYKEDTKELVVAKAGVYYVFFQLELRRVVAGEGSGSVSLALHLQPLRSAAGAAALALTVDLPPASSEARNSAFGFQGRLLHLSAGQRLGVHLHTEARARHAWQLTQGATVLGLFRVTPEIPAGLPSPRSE

IL-17E (IL-25) = molecular target: T4, IL-17E (IL-25) (UniProt Q9H293 33-177); test: direct ELISA
T4 sequence (looked up): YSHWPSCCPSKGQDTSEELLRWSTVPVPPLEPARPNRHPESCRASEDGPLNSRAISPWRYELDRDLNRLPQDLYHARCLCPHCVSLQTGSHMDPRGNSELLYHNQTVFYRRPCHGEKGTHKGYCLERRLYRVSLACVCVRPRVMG

IL-17B = molecular target: T5, IL-17B (UniProt Q9UHF5 21-180); test: direct ELISA
T5 sequence (looked up): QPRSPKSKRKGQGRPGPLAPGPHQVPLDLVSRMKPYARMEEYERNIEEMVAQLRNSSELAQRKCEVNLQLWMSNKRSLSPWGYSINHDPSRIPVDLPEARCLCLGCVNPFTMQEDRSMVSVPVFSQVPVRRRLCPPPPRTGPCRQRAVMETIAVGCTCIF

human TNF-α [1] = molecular target: T6, human TNF-α (human, UniProt P01375 77-233); test: cell-based or functional assay
T6 sequence (P01375 77-233 limits assumed): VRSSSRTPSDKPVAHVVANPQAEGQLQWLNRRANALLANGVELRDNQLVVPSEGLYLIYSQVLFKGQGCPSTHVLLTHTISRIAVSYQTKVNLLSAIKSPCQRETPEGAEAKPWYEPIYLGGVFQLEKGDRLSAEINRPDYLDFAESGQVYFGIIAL

human IL-17A/A homodimer [2] = molecular target: T7, human IL-17A/A homodimer (human, UniProt Q16552 24-155); test: cell-based or functional assay
T7 sequence: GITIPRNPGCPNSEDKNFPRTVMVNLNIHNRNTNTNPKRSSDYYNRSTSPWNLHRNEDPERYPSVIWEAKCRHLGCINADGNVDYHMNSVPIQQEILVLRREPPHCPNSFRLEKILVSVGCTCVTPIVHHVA

[3] = molecular target: T8, human IL-17A/F heterodimer (human, UniProt Q16552 24-155; Q96PD4 31-163); test: cell-based or functional assay
T8 sequence 1: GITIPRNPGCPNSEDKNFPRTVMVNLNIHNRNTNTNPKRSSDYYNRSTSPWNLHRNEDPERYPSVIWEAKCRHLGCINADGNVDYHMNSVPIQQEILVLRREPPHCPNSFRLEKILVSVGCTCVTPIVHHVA
T8 sequence 2: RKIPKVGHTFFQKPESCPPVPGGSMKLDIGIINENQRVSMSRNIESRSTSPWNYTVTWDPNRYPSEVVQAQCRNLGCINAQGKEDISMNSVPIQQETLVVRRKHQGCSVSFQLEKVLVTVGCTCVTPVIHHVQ

rabbit TNF = molecular target: T9, rabbit TNF (rabbit, UniProt P04924 80-235, limits assumed); test: cell-based or functional assay
T9 sequence (looked up): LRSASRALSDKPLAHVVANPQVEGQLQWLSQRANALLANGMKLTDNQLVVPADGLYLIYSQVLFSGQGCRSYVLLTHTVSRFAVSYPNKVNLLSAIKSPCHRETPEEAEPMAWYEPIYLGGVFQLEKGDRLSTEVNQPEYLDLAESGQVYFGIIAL

human TNF-α [4] = molecular target: T6, human TNF-α; test: cell-based or functional assay; remark: listed apart in the source
mouse IL-17 = molecular target: T10, mouse IL-17 (mouse, UniProt Q62386 26-158, limits assumed); test: cell-based or functional assay
T10 sequence (looked up): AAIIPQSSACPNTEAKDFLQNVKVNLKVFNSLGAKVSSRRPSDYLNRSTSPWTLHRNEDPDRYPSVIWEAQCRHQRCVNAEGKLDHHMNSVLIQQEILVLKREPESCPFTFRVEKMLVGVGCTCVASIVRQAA

rat IL-17 = molecular target: T11, rat IL-17 (rat, UniProt Q61453 18-150, limits assumed); test: cell-based or functional assay
T11 sequence (looked up): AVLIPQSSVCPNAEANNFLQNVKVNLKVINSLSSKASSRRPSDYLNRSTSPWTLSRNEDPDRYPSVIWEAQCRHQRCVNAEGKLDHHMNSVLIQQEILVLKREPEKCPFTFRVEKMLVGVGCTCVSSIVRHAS

[5] = molecular target: monkey (Rhesus/Cynomolgus) TNF (monkey (Rhesus/Cynomolgus), UniProt P48094 77-233); test: cell-based or functional assay
monkey (Rhesus/Cynomolgus) TNF, sequence (P48094 77-233 limits assumed): as the sequence (P01375 77-233 limits assumed) above, with R44T, T72N, R138L counted along it

mouse TNF = molecular target: T12, mouse TNF (mouse, UniProt P06804 80-235); test: cell-based or functional assay
T12 sequence (looked up): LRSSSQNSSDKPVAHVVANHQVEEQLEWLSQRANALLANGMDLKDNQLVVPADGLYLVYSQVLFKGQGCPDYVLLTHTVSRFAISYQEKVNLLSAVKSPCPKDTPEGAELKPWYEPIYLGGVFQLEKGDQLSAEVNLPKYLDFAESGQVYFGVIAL

[6] = molecular target: T13, monkey (Rhesus/Cynomolgus) IL-17 (monkey (Rhesus/Cynomolgus), UniProt F6T3G5 24-155); test: cell-based or functional assay
T13 sequence: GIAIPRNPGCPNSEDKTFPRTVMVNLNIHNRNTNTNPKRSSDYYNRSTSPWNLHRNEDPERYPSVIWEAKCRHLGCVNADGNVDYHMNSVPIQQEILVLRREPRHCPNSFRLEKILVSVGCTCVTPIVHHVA

rat TNF = molecular target: T14, rat TNF (rat, UniProt P16599 80-235); test: cell-based or functional assay
T14 sequence (looked up): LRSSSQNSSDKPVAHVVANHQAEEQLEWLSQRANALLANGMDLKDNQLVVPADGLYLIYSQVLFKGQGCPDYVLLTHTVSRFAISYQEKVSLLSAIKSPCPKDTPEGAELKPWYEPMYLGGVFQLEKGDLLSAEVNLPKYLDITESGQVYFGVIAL

human IL-17A/A homodimer [7] = molecular target: T7, human IL-17A/A homodimer; test: cell-based or functional assay; remark: listed apart in the source

B1: ABBV-257 anti-human TNF and IL-17 DVD-Ig binding protein (bispecific antibody, human IgG1, kappa, L234A L235A)
heavy: EVQLVQSGAEVKKPGASVKVSCKASGYTFANYGIIWVRQAPGQGLEWMGWINTYTGKPTYAQKFQGRVTMTTDTSTSTAYMELSSLRSEDTAVYYCARKLFTTMDVTDNAMDYWGQGTTVTVSSGGGGSGGGGSEVQLVQSGAEVKKPGSSVKVSCKASGYTFTDYEIHWVRQAPGQGLEWMGVNDPESGGTFYNQKFDGRVTLTADESTSTAYMELSSLRSEDTAVYYCTRYSKWDSFDGMDYWGQGTTVTVSSASTKGPSVFPLAPSSKSTSGGTAALGCLVKDYFPEPVTVSWNSGALTSGVHTFPAVLQSSGLYSLSSVVTVPSSSLGTQTYICNVNHKPSNTKVDKKVEPKSCDKTHTCPPCPAPEAAGGPSVFLFPPKPKDQLMISRTPEVTCVVVDVSHEDPEVKFNWYVDGVEVHNAKTKPREEQYNSTYRVVSVLTVLHQDWLNGKEYKCKVSNKALPAPIEKTISKAKGQPREPQVYTLPPSREEMTKNQVSLTCLVKGFYPSDIAVEWESNGQPENNYKTTPPVLDSDGSFFLYSKLTVDKSRWQQGNVFSCSVLHEALHNHYTQKSLSLSPGK
light: DIQMTQSPSSLSASVGDRVTITCRASQDISQYLNWYQQKPGKAPKLLIYYTSRLQSGVPSRFSGSGSGTDFTLTISSLQPEDFATYFCQQGNTWPPTFGQGTKLEIKRGGSGGGGSGDIQMTQSPSSLSASVGDRVTITCRASSGIISYIDWFQQKPGKAPKRLIYATFDLASGVPSRFSGSGSGTDYTLTISSLQPEDFATYYCRQVGSYPETFGQGTKLEIKRTVAAPSVFIFPPSDEQLKSGTASVVCLLNNFYPREAKVQWKVDNALQSGNSQESVTEQDSKDSTYSLSSTLTLSKADYEKHKVYACEVTHQGLSSPVTKSFNRGEC
modifications: N-linked glycans on the heavy chain at the asparagine commonly modified on IgG1 antibodies (fucosylated biantennary oligosaccharides with 0, 1 or 2 galactose residues)
notes: It says the constant region carries L234A, L235A and also T250Q and M428L; also called Anti-IL-17/TNF DVD-Ig Protein
binding result (TL1A): no binding | binding result (Fas ligand): no binding | binding result (IL-17D): no binding | binding result (4-1BB ligand): no binding | binding result (IL-17E (IL-25)): no binding | binding result (IL-17B): no binding | Mean IC50, inhibition of TNF-induced lethality of L929 cells (human TNF-α [1]): 0.025 nM | Mean IC50, inhibition of IL-17 dependent induction of IL-6 in fibroblasts (human IL-17A/A homodimer [2]): 0.026 nM | Mean IC50, inhibition of IL-17 dependent induction of IL-6 in fibroblasts [3]: 0.11 nM | IC50, in vitro neutralization assay (In-Vitro Potency) (rabbit TNF): > 1000 nM | IC50, in vitro neutralization assay (In-Vitro Potency) (human TNF-α [4]): 0.025 nM | IC50, in vitro neutralization assay (In-Vitro Potency) (mouse IL-17): 0.239 nM | IC50, in vitro neutralization assay (In-Vitro Potency) (rat IL-17): 0.135 nM | IC50, in vitro neutralization assay (In-Vitro Potency) [5]: 0.025 nM | IC50, in vitro neutralization assay (In-Vitro Potency) (mouse TNF): > 1000 nM | IC50, in vitro neutralization assay (In-Vitro Potency) [6]: 0.032 nM | IC50, in vitro neutralization assay (In-Vitro Potency) (rat TNF): > 1000 nM | IC50, in vitro neutralization assay (In-Vitro Potency) (human IL-17A/A homodimer [7]): 0.026 nM
